Series [1] addresses T1, DDX21 helicase core WT (human, UniProt Q9NR30 188-563).
T1 sequence: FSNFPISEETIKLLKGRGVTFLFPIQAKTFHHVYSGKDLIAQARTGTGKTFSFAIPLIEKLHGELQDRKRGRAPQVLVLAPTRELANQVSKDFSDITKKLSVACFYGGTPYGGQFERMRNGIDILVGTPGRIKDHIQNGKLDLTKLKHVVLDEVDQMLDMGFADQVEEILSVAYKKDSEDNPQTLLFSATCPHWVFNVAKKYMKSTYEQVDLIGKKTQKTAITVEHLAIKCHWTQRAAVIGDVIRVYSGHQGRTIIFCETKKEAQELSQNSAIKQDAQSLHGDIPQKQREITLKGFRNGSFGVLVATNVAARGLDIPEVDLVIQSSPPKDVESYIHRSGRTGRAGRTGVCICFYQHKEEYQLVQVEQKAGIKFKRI
Kind of series: SEC co-elution.

Series [2] concerns the target T1, DDX21 helicase core WT. The experiment in a line: MST.

B1: U15 RNA (SEC) (ssRNA)
RNA: UUUUUUUUUUUUUUU
As for B1, the binding result with DDX21 helicase core WT [1] is reported as “binds”.

B2: U15 RNA, 5'-FAM (ssRNA)
RNA: UUUUUUUUUUUUUUU
Take B2: the binding result with DDX21 helicase core WT [2] was “binds”.

The values are drawn from article PMC9420396.
